Results reported in patent US20250147051A1, “METHOD FOR DETECTING A TAU PROTEIN IN A SALIVA SAMPLE” (GTINVENT LIMITED, priority 2022, published 2025).
Blank lines part the entries; values can stand above or below the substance they belong to.

Legend:
[1] = biological target: full length human tau protein 2N4R (hT40) (human) (UniProt P10636); test: Simoa 3-step sandwich, S1D12 capture beads, biotinylated BT2 detector, recombinant hTau40 standard curve; fifth of 8 cells of a shifted row
[2] = biological target: full length human tau protein 2N4R (hT40) (human) (UniProt P10636); test: Simoa 3-step sandwich, S1D12 capture beads, biotinylated HT7 detector, recombinant hTau40 standard curve; fourth of 8 cells of a shifted row
[3] = biological target: full length human tau protein 2N4R (hT40) (human) (UniProt P10636); test: Simoa 3-step sandwich, BT2 capture beads, biotinylated HT7 detector, recombinant hTau40 standard curve; sixth of 8 cells of a shifted row
[4] = biological target: full length human tau protein 2N4R (hT40) (human) (UniProt P10636); test: Simoa 3-step sandwich, BT2 capture beads, biotinylated Tau12 detector, recombinant hTau40 standard curve; first of 8 cells of a shifted row, read in the order of the assay heads
[5] = biological target: full length human tau protein 2N4R (hT40) (human) (UniProt P10636); test: Simoa, Tau12 on beads, biotinylated HT7 detector
[6] = biological target: full length human tau protein 2N4R (hT40) (human) (UniProt P10636); test: Simoa 3-step sandwich, S1D12 capture beads, biotinylated Tau12 detector, recombinant hTau40 standard curve; third of 8 cells of a shifted row
[7] = biological target: full length human tau protein 2N4R (hT40) (human) (UniProt P10636); test: Simoa 3-step sandwich, S1D12 capture beads, biotinylated Tau46 detector, recombinant hTau40 standard curve; seventh of 8 cells of a shifted row

Sequence of full length human tau protein 2N4R (hT40) (human) (P10636 other isoform, or with tags, fused parts or gaps limits assumed): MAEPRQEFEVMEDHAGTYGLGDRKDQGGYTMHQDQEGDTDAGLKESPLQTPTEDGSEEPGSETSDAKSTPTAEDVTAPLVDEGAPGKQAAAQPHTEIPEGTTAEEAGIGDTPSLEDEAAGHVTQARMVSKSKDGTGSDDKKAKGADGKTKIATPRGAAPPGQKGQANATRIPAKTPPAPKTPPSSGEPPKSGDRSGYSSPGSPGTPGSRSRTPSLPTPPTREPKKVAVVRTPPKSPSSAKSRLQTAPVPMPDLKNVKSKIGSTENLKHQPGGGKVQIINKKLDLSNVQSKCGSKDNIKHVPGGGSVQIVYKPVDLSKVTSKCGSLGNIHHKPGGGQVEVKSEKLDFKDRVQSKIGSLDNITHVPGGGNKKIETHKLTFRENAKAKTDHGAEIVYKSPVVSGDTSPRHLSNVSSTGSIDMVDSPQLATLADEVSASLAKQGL

- Assay limit of detection [1]: 10.8 pg/mL
Substance: BT2 (antibody)

- Assay limit of detection [2]: 0.25 pg/mL
- Assay limit of detection [3]: 0.25 pg/mL
Substance: HT7 (antibody)

- Assay limit of detection [4]: 0.25 pg/mL
- Simoa limit of detection [5]: 2.2 pg/mL
- Assay limit of detection [6]: 0.25 pg/mL
Substance: Tau12 mAb (antibody)

- Assay limit of detection [7]: 2.2 pg/mL
Substance: Tau46 (antibody)
